The values that follow come from article PMC10786891, “Massively parallel profiling of RNA-targeting CRISPR-Cas13d”.

B1: target 3 G4U,U8G (mixed)
RNA 1: CACCCGUGCAAAAUUGCAGGGGUCUAAAACGACCUGAAUAUUUCAGAUCAAA
RNA 2: GGGAAUGGAUCCACAUCUACGAAUUCGUUUUUGAUCUGAAAUAGUCAUGUCUGCAGAUCGGAAGAGCACACGU
B2: target 3 insG 3' of 6,insC 3' of 5 (mixed)
RNA 1: CACCCGUGCAAAAUUGCAGGGGUCUAAAACGACCUGAAUAUUUCAGAUCAAA
RNA 2: GGGAAUGGAUCCACAUCUACGAAUUCGUUUUUGAUCUGAAAUAUUCGACGGUCUGCAGAUCGGAAGAGCACACGU
B3: target 3 insU 3' of 11,insA 3' of 6 (mixed)
RNA 1: CACCCGUGCAAAAUUGCAGGGGUCUAAAACGACCUGAAUAUUUCAGAUCAAA
RNA 2: GGGAAUGGAUCCACAUCUACGAAUUCGUUUUUGAUCUGAAAUUAUUCAAGGUCUGCAGAUCGGAAGAGCACACGU
B4: target 3 U2G,U21A (mixed)
RNA 1: CACCCGUGCAAAAUUGCAGGGGUCUAAAACGACCUGAAUAUUUCAGAUCAAA
RNA 2: GGGAAUGGAUCCACAUCUACGAAUUCGUUUAUGAUCUGAAAUAUUCAGGGCUGCAGAUCGGAAGAGCACACGU
B5: target 3 insC 3' of 2,insU 3' of 1 (mixed)
RNA 1: CACCCGUGCAAAAUUGCAGGGGUCUAAAACGACCUGAAUAUUUCAGAUCAAA
RNA 2: GGGAAUGGAUCCACAUCUACGAAUUCGUUUUUGAUCUGAAAUAUUCAGGUCCUUGCAGAUCGGAAGAGCACACGU
B6: target 3 insA 3' of 21,insG 3' of 2 (mixed)
RNA 1: CACCCGUGCAAAAUUGCAGGGGUCUAAAACGACCUGAAUAUUUCAGAUCAAA
RNA 2: GGGAAUGGAUCCACAUCUACGAAUUCGUUUUAUGAUCUGAAAUAUUCAGGUGCUGCAGAUCGGAAGAGCACACGU
B7: target 3 G4C,A12U (mixed)
RNA 1: CACCCGUGCAAAAUUGCAGGGGUCUAAAACGACCUGAAUAUUUCAGAUCAAA
RNA 2: GGGAAUGGAUCCACAUCUACGAAUUCGUUUUUGAUCUGAUAUAUUCACGUCUGCAGAUCGGAAGAGCACACGU
B8: target 3 G3U (mixed)
RNA 1: CACCCGUGCAAAAUUGCAGGGGUCUAAAACGACCUGAAUAUUUCAGAUCAAA
RNA 2: GGGAAUGGAUCCACAUCUACGAAUUCGUUUUUGAUCUGAAAUAUUCAGUUCUGCAGAUCGGAAGAGCACACGU
B9: target 3 C1A,G3U (mixed)
RNA 1: CACCCGUGCAAAAUUGCAGGGGUCUAAAACGACCUGAAUAUUUCAGAUCAAA
RNA 2: GGGAAUGGAUCCACAUCUACGAAUUCGUUUUUGAUCUGAAAUAUUCAGUUAUGCAGAUCGGAAGAGCACACGU
B10: target 3 A9G,U21A (mixed)
RNA 1: CACCCGUGCAAAAUUGCAGGGGUCUAAAACGACCUGAAUAUUUCAGAUCAAA
RNA 2: GGGAAUGGAUCCACAUCUACGAAUUCGUUUAUGAUCUGAAAUGUUCAGGUCUGCAGAUCGGAAGAGCACACGU
B11: target 3 A5G,U8G (mixed)
RNA 1: CACCCGUGCAAAAUUGCAGGGGUCUAAAACGACCUGAAUAUUUCAGAUCAAA
RNA 2: GGGAAUGGAUCCACAUCUACGAAUUCGUUUUUGAUCUGAAAUAGUCGGGUCUGCAGAUCGGAAGAGCACACGU
B12: target 3 G4C,U21A (mixed)
RNA 1: CACCCGUGCAAAAUUGCAGGGGUCUAAAACGACCUGAAUAUUUCAGAUCAAA
RNA 2: GGGAAUGGAUCCACAUCUACGAAUUCGUUUAUGAUCUGAAAUAUUCACGUCUGCAGAUCGGAAGAGCACACGU
B13: target 3 G4U,U7A (mixed)
RNA 1: CACCCGUGCAAAAUUGCAGGGGUCUAAAACGACCUGAAUAUUUCAGAUCAAA
RNA 2: GGGAAUGGAUCCACAUCUACGAAUUCGUUUUUGAUCUGAAAUAUACAUGUCUGCAGAUCGGAAGAGCACACGU
B14: target 3 del4,del22 (mixed)
RNA 1: CACCCGUGCAAAAUUGCAGGGGUCUAAAACGACCUGAAUAUUUCAGAUCAAA
RNA 2: GGGAAUGGAUCCACAUCUACGAAUUCGUUUUGAUCUGAAAUAUUCAGUCUGCAGAUCGGAAGAGCACACGU
B15: target 3 G3U,U22A (mixed)
RNA 1: CACCCGUGCAAAAUUGCAGGGGUCUAAAACGACCUGAAUAUUUCAGAUCAAA
RNA 2: GGGAAUGGAUCCACAUCUACGAAUUCGUUAUUGAUCUGAAAUAUUCAGUUCUGCAGAUCGGAAGAGCACACGU
B16: target 3 C1A,U7A (mixed)
RNA 1: CACCCGUGCAAAAUUGCAGGGGUCUAAAACGACCUGAAUAUUUCAGAUCAAA
RNA 2: GGGAAUGGAUCCACAUCUACGAAUUCGUUUUUGAUCUGAAAUAUACAGGUAUGCAGAUCGGAAGAGCACACGU
B17: target 3 insA 3' of 17,insA 3' of 15 (mixed)
RNA 1: CACCCGUGCAAAAUUGCAGGGGUCUAAAACGACCUGAAUAUUUCAGAUCAAA
RNA 2: GGGAAUGGAUCCACAUCUACGAAUUCGUUUUUGAUACUAGAAAUAUUCAGGUCUGCAGAUCGGAAGAGCACACGU
B18: target 3 insA 3' of 22,insU 3' of 4 (mixed)
RNA 1: CACCCGUGCAAAAUUGCAGGGGUCUAAAACGACCUGAAUAUUUCAGAUCAAA
RNA 2: GGGAAUGGAUCCACAUCUACGAAUUCGUUUAUUGAUCUGAAAUAUUCAGUGUCUGCAGAUCGGAAGAGCACACGU
B19: target 3 C6A,U22G (mixed)
RNA 1: CACCCGUGCAAAAUUGCAGGGGUCUAAAACGACCUGAAUAUUUCAGAUCAAA
RNA 2: GGGAAUGGAUCCACAUCUACGAAUUCGUUGUUGAUCUGAAAUAUUAAGGUCUGCAGAUCGGAAGAGCACACGU
B20: target 3 insA 3' of 8,insC 3' of 4 (mixed)
RNA 1: CACCCGUGCAAAAUUGCAGGGGUCUAAAACGACCUGAAUAUUUCAGAUCAAA
RNA 2: GGGAAUGGAUCCACAUCUACGAAUUCGUUUUUGAUCUGAAAUAUAUCAGCGUCUGCAGAUCGGAAGAGCACACGU
B21: target 3 G4A (mixed)
RNA 1: CACCCGUGCAAAAUUGCAGGGGUCUAAAACGACCUGAAUAUUUCAGAUCAAA
RNA 2: GGGAAUGGAUCCACAUCUACGAAUUCGUUUUUGAUCUGAAAUAUUCAAGUCUGCAGAUCGGAAGAGCACACGU
B22: target 3 insA 3' of 4,insA 3' of 3 (mixed)
RNA 1: CACCCGUGCAAAAUUGCAGGGGUCUAAAACGACCUGAAUAUUUCAGAUCAAA
RNA 2: GGGAAUGGAUCCACAUCUACGAAUUCGUUUUUGAUCUGAAAUAUUCAGAGAUCUGCAGAUCGGAAGAGCACACGU
B23: target 3 G19A,U20G (mixed)
RNA 1: CACCCGUGCAAAAUUGCAGGGGUCUAAAACGACCUGAAUAUUUCAGAUCAAA
RNA 2: GGGAAUGGAUCCACAUCUACGAAUUCGUUUUGAAUCUGAAAUAUUCAGGUCUGCAGAUCGGAAGAGCACACGU
B24: target 1 insC 3' of 20 (mixed)
RNA 1: CACCCGUGCAAAAAUGCAGGGGUCUAAAACUGAGCGGAUAACCUCUCUAUGG
RNA 2: GGGAAUGGAUCCACAUCUACGAAUUCGUACCACUAGAGAGGUUAUCCGCUCACCGAGAUCGGAAGAGCACACGU
B25: target 1 insU 3' of 17,insG 3' of 7 (mixed)
RNA 1: CACCCGUGCAAAAAUGCAGGGGUCUAAAACUGAGCGGAUAACCUCUCUAUGG
RNA 2: GGGAAUGGAUCCACAUCUACGAAUUCGUACCAUAGUAGAGGUUAUCGCGCUCACCGAGAUCGGAAGAGCACACGU
B26: target 1 C2A,G13C (mixed)
RNA 1: CACCCGUGCAAAAAUGCAGGGGUCUAAAACUGAGCGGAUAACCUCUCUAUGG
RNA 2: GGGAAUGGAUCCACAUCUACGAAUUCGUACCAUAGAGACGUUAUCCGCUAACCGAGAUCGGAAGAGCACACGU
B27: target 1 U10G,A16C (mixed)
RNA 1: CACCCGUGCAAAAAUGCAGGGGUCUAAAACUGAGCGGAUAACCUCUCUAUGG
RNA 2: GGGAAUGGAUCCACAUCUACGAAUUCGUACCAUAGCGAGGUGAUCCGCUCACCGAGAUCGGAAGAGCACACGU

This data set addresses T1, EsCas13d, nuclease-dead (Eubacterium siraeum, UniProt B0MS50, R295A;H300A;R849A;H854A).
T1 sequence: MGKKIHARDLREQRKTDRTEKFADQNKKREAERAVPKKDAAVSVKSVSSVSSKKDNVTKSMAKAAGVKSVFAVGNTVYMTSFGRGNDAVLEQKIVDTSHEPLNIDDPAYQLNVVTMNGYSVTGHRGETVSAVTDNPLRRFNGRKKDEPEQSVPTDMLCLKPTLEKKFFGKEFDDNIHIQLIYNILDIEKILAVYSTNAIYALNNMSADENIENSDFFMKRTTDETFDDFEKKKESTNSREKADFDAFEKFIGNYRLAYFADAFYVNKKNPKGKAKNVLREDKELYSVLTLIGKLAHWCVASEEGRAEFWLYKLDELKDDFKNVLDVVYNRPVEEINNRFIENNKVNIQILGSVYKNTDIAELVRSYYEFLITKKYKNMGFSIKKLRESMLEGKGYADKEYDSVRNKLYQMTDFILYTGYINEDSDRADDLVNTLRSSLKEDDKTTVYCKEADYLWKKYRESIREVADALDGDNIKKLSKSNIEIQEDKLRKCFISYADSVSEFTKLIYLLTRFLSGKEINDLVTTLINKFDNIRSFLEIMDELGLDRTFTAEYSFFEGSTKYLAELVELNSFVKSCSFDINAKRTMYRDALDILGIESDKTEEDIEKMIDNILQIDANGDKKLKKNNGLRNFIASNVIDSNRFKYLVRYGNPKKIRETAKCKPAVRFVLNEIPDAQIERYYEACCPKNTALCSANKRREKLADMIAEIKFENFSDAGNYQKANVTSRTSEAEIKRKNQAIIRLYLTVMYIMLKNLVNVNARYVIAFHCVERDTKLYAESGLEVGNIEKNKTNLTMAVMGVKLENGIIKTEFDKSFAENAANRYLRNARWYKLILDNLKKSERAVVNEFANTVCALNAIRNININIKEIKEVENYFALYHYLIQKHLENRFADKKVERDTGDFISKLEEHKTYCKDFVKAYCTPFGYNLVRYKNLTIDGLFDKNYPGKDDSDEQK
Kind of data set: crRNA (strand 1, pre-loaded); Mg2+; 40 mM Tris-HCl pH 7.5, 150 mM NaCl, 6 mM MgCl2, 1 mM DTT, 0.1% Tween-20, 0.2 mg/ml BSA; 25 C; 10 min per concentration, then washed. The settings on record: tags: His6-TwinStrep-SUMO cleaved; N-terminal SNAP kept (SNAP-Surface 488); label: 3' end held by stalled T7 RNA polymerase.
Usually Kd stands for a measure of binding affinity in units of concentration. B1 registered an equilibrium dissociation constant (Kd) of 16.4 ± 2.35 nM. With B2 the figure was 11.4 ± 1.1 nM; with B3, 63 ± 8.5 nM.

B4 gave a Kd of 36.5 ± 7 nM. In the case of B5, the equilibrium dissociation constant (Kd) was found to be 82.5 ± 27.5 nM. B6 returned a Kd of 39.8 ± 3.75 nM.

The molecule B7 came in with an equilibrium dissociation constant (Kd) of 110 ± 45 nM.

In the case of B8, the Kd came to 22.9 ± 2.2 nM. With B9 the figure was around 75 nM; with B10, 95.5 ± 22.5 nM; with B11, 65.5 ± 7.5 nM.

Regarding B12, the dissociation constant (Kd) worked out at 87 ± 16 nM. In the case of B13 it was 10.4 ± 1.4 nM; in that of B14, 16.6 ± 2.3 nM; in that of B15, 20.6 ± 2.75 nM. In the case of B16, the dissociation constant Kd was 28.5 ± 14 nM. In the case of B17, binding was put at a Kd of 36.9 ± 8.1 nM. In the case of B18 it was 4.56 ± 0.52 nM; in that of B19, 108 ± 25 nM; in that of B20, 61.5 ± 9.5 nM. In the case of B21 it was 4.89 ± 0.35 nM. With B22 the figure was 50 ± 7.5 nM; with B23, 55 ± 8 nM. Regarding B24, the Kd is 6.4 ± 0.4 nM. With B25 the figure was 13.7 ± 0.6 nM. In the case of B26 it was 50 ± 5 nM; in that of B27, 57 ± 10 nM.
